# Columns and labels:
# [1] = tested on: chloroplasts of the tobacco leaf tissue; assay: Tobacco transient assay, confocal microscopy of TraP-YFP; assay type: cell-based, Nicotiana benthamiana; conditions: Agrobacterium-infiltrated tobacco leaves
# Text: The Trap12 and TraP13 chimeric chloroplast transit peptide sequences were initially tested via a transient in planta assay. Polynucleotide sequences which encode the Trap12 (SEQ ID NO:5) and TraP13 (SEQ ID NO:7) chimeric chloroplast transit peptide sequences were synthesized. A linker sequence (SEQ ID NO:10) was incorporated between the TraP sequence and the yfp coding sequence. The resulting constructs contained two plant transcription units (PTU). The first PTU was comprised of the Arabidopsis thaliana Ubiquitin 10 promoter (AtUbi10 promoter; Callis, et al., (1990) J. Biol. Chem., 265: 12486-12493), Trap yellow fluorescent protein fusion gene (TraP-YFP; US Patent App. 2007/0298412), and Agrobacterium tumefaciens ORF 23 3′ untranslated region (AtuORF23 3′UTR; U.S. Pat. No. 5,428,147). […]
# Agrobacterium-infiltrated tobacco leaves were severed from the plant, and placed into a petri-dish with water to prevent dehydration. The infiltrated tobacco leaves were observed under blue light excitation with long-pass filter glasses held in place using a Dark Reader Hand Lamp™ (Clare Chemical Research Co.; Dolores, Colo.) to identify undamaged areas of the leaf that were successfully expressing the YFP reporter proteins. […]
# [2] = tested on: Cry1Ac, Cry1Ca, Cry1F proteins; assay: Protein expression of stacked TraP12 cry1Ac, cry1Ca, cry1F in Arabidopsis (Western blotting, ELISA); parameters: species or system Arabidopsis thaliana
# Text: The TraP12 chimeric transit peptide was fused to the 5′ end of cry1Ac, cry1Ca, and cry1F gene sequences which were stacked in multi PTU plasmid constructs to determine whether the TraP12 chimeric transit peptide enhanced or reduced expression of the proteins within Arabidopsis.
# The constructs listed in Table 35 were assembled using art recognized methods. The constructs were subsequently transformed into Arabidopsis thaliana using the Agrobacterium mediated transformation protocol previously described. Transgenic Arabidopsis plants were obtained and protein expression was determined via Western blotting and ELISA assays.
# [3] = tested on: chloroplasts of the maize protoplast; assay: Maize protoplast transient assay, microscopy of TraP12-YFP; assay type: cell-based, Zea mays var. B104; conditions: maize protoplasts, 12 hours after transfection
# Text: The Trap12 chimeric chloroplast transit peptide-encoding polynucleotide sequence (SEQ ID NO:5) and the linker sequence (SEQ ID NO:10) were cloned upstream of the yellow fluorescent protein gene and incorporated into construct for testing via the maize protoplast transient in planta assay. The resulting construct contained the following plant transcription unit (PTU). The first PTU was comprised of the Zea mays Ubiquitin 1 promoter (ZmUbi1 promoter; Christensen, A., Sharrock R., and Quail P., (1992) Maize polyubiquitin genes: structure, thermal perturbation of expression and transcript splicing, and promoter activity following transfer to protoplasts by electroporation, Plant Molecular Biology, 18:675-689), Trap yellow fluorescent protein fusion gene (TraP12-YFP; US Patent App. 2007/0298412), and Zea mays Peroxidase 5 3′ untranslated region (ZmPer5 3′UTR; U.S. Pat. No. 6,384,207). The construct was confirmed via restriction enzyme digestion and sequencing.
# Seed of Zea mays var. B104 were surface sterilized by shaking vigorously in 50% Clorox (3% sodium hypochlorite), containing 2-3 drops of Tween 20, for about 20 minutes. […]
# Transfection of 100 to 500 μl of protoplasts (1-5×10^5) was completed by adding the protoplasts to a 2 ml microfuge tube containing about 40 μg of plasmid DNA (pDAB106597), at room temperature. […] Fluorescence of YFP was viewed by microscopy after 12 hours of incubation. […]
molecule,measurement,setting,value
"TraP12: chimeric chloroplast transit peptide SEQ ID NO:6, N-terminus from Brassica napus, C-terminus from Arabidopsis thaliana EPSPS (protein, TraP12 chloroplast transit peptide) MAQSSRICHGVQNPCVIISNLSKSNQNKSPFSVSLKTHQHPRAYPISSSWGLKKSGMTLIGSELRPLKVMSSVS",localization of YFP fluorescence signal (microscopy imaging),[1],accumulated within the chloroplasts
same,translocation of expressed proteins (Western blots),[2],directed the expressed proteins into the chloroplasts
same,localization of YFP fluorescent protein (microscopy imaging),[3],accumulated within the chloroplasts

# From patent US9540654B2, “Synthetic brassica-derived chloroplast transit peptides” (Dow AgroSciences LLC, priority 2012, dated 2017)
